Assay [1] concerns the target recombinant Cas2C of Leptospira interrogans serovar Copenhageni (rLinCas2C) (L. interrogans serovar Copenhageni strain Fiocruz L1-130). As to the kind of experiment: SEC; size-exclusion chromatography of the Ni-NTA purified recombinant protein; conditions not shown. (SEC sorts molecules by how far they enter the pores of the column.)
Assay [2] concerns the target recombinant Cas2C of Leptospira interrogans serovar Lai (rLinCas2C_Lai) (L. interrogans serovar Lai). Described as above.

As usually defined, the stoichiometry N is a count of units in the complex or per binding partner. “recombinant Cas2C of Leptospira interrogans serovar Copenhageni (rLinCas2C) (enzyme)”: the stoichiometry N in assay [1] is 2.

In the case of “recombinant Cas2C of Leptospira interrogans serovar Lai (rLinCas2C_Lai) (enzyme)”, in assay [2], the stoichiometry N was found to be 3.
